B1: PRPH (parent)
chain: RTFGPPPSLSPGAFSYSSSSRFSS
B2: ALDH8A1 (parent)
chain: WSSRSPQERSRVLNQVADLLEQSL

Variants of: B1
Assay: protein stability index of a GFP-peptide fusion (GPS, HEK-293T) (PSI 1-6); higher = more stable
Settings: c terminus: a fixed tail appended
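Further: lentivirally expressed fusions sorted by FACS into six bins by GFP to DsRed ratio, PSI derived from sequencing read proportions per bin multiplied by bin number.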

Variant | protein stability index
G4D | 3.36
G4R | 3.1
P5Q | 2.6
P5D | 3.35
P5L | 2.07
P5N | 3.55
P5V | 2.89
R1D | 3.29
R1V | 1.97
R1S | 3.01
R1I | 2.41
S15H | 2.85
F22M | 3.73
F22P | 3.27
F22I | 3.81
F22A | 3.4
F22N | 3.44
F22W | 2.83
F22H | 3.55
P6I | 2.9
P6Y | 2.11
P6D | 2.86
P6A | 2.76
P6V | 3.05
P6M | 2.8
A13Q | 3.62

Variant | protein stability index
A13P | 3.21
A13G | 3.21
A13C | 2.86
S24D | 3.19
S24I | 3.01
S18W | 2.77
S18D | 2.94
S18Q | 3.5
S18V | 3.24
S18G | 3.38
T2Y | 2.31
T2K | 2.49
T2A | 2.95
T2F | 2.46
L9G | 3.64
L9E | 3.44
L9D | 3.61
L9Y | 2.94
L9F | 3.39
S8D | 3.04
S8K | 2.58
S8M | 2.93
S8E | 3.49
F3C | 2.82
F3K | 3.38
F3L | 4.11

Variant | protein stability index
F3V | 3.31
F3T | 3.54
S20C | 2.33
S20F | 2.35
G12R | 3.35
G12I | 3.05
S10M | 3.61
S10C | 3.45
S10L | 3.24
S10W | 2.9
S10Y | 2.36
F14I | 3.17
F14H | 3.7
F14T | 4.16
S17I | 2.55
S17E | 3.59
S17F | 2.37
S17V | 2.75
S17T | 3.19
S17K | 3.04
S17H | 2.54
S17C | 2.85
R21L | 2.56
R21W | 1.75
R21G | 2.85
R21M | 2.8

Variant | protein stability index
R21V | 3.1
R21A | 2.46
R21Q | 3.23
Y16L | 3.95
Y16G | 4.28
Y16S | 3.86
Y16T | 3.64
Y16D | 3.9
Y16P | 4.1
Y16K | 3.66
S19C | 2.66
S19F | 2.38
S19V | 3.63
P11V | 2.69
P11Y | 2.41
S23H | 3.02
S23M | 2.88
S23F | 3.09
S23K | 3.48
S23N | 3.36
S23L | 2.93
P7R | 2.93
P7Q | 3.13
P7L | 2.71

Variants of: B2
Assay: as above
Settings: c terminus: a fixed tail appended

Variant | protein stability index
N14I | 2.02
N14W | 1.95
N14P | 3.21
N14R | 3.47
N14Y | 4.15
N14T | 2.82
N14E | 3.24
R11Q | 2.38
R11H | 1.89
R11N | 2.48
R11K | 1.99
R11W | 1.86
R11G | 2.91
R11A | 3.4
R11P | 2.58
R11C | 2.18
R11E | 3.27
R11L | 2.15
R11D | 3.37
R11F | 2.43
R11V | 2.68
R11M | 1.55
V16C | 2.98
V16R | 3.9

Variant | protein stability index
V16H | 3.55
V16E | 4.6
V16I | 2
V16A | 3.86
V16P | 3.62
V16T | 4.18
L24P | 4.16
L24H | 3.96
L24G | 3.16
L24W | 2.19
L24M | 2.86
L24V | 2.29
L24F | 2.03
L24S | 3.61
L24A | 2.88
P6C | 2.19
P6Q | 2.85
P6Y | 1.98
P6T | 3.1
P6R | 2.31
P6A | 2.13
P6K | 2.42
E21M | 2
E21I | 2.09

Variant | protein stability index
E21L | 2.11
E21C | 2.47
E21Y | 1.71
E21G | 2.24
E21A | 2.13
E21V | 2.17
E21F | 2.47
E21P | 3.24
S10P | 2.49
S10N | 2.29
S10C | 2.36
S10A | 2.41
S10V | 2.05
S10E | 3.11
S10W | 2.82
S10M | 2.45
S10L | 2.25
S10T | 1.81
S10H | 2.58
S10Q | 2.32
S10D | 3.14
S10K | 1.99
S10F | 1.24
A17M | 1.85

Variant | protein stability index
A17W | 2.33
A17L | 1.48
A17T | 3.1
A17I | 2.42
A17V | 2.69
A17D | 3.87
A17P | 3.53
A17K | 3.17
A17C | 2.34
A17N | 3.3
R9I | 2.44
R9G | 2.96
R9H | 2.77
R9S | 2.87
R9T | 2.23
R9W | 2.22
R9C | 1.39
R9E | 3.38
R9K | 2.83
R9Q | 2.24
R9Y | 2.21
R9M | 2.16
L13H | 2.73
L13P | 4.09

Variant | protein stability index
L13W | 2.55
L13E | 3.49
L13T | 3.5
L13S | 3.49
L13Y | 2.6
L13D | 3.81
L19T | 3.74
L19R | 3.98
L19D | 3.72
L19H | 3.97
L19F | 2.23
L19N | 4.23
L19Y | 3.15
L19G | 4.16
L19Q | 4.19
D18L | 1.86
D18M | 2.17
D18V | 1.92
D18H | 2.2
D18Q | 1.59
V12H | 3.05
V12T | 3.47
V12G | 3.48
V12M | 2.31

Variant | protein stability index
V12E | 3.88
V12R | 2.71
V12D | 3.85
V12S | 3.78
V12C | 2.35
R4M | 2.22
R4W | 2.68
R4T | 2.62
R4E | 2.97
R4N | 2.61
R4F | 1.82
R4C | 1.68
R4Y | 2.09
Q7S | 2.21
Q7R | 2.62
Q7C | 2.24
Q7I | 2.42
Q7H | 2.31
Q7Y | 1.79
Q7A | 2.38
Q7P | 2.9
Q7M | 2.23
E8R | 2.88
E8V | 2.23

Variant | protein stability index
E8H | 2.71
E8C | 1.6
E8F | 2.01
E8T | 2.46
E8Q | 2.57
E8M | 2.19
E8I | 2.68
S3G | 1.82
S3L | 1.98
S3F | 1.88
S3M | 2.27
S3R | 2.28
S3I | 2.2
S3P | 2.54
S5F | 1.99
S5H | 2.14
S5P | 2.57
S5V | 2.81
S5Q | 3.01
S5A | 2.62
S5W | 1.59
S5G | 2.05
S23I | 2.51
S23Q | 3.39

Variant | protein stability index
S23H | 2.77
S23F | 2.24
S23Y | 1.72
S23T | 1.94
S23L | 2.11
S23N | 3.45
S23G | 2.54
S23A | 2.31
Q22R | 2.72
Q22M | 1.83
Q22A | 2.22
Q22L | 1.65
Q22T | 2.53
Q22S | 3.1
Q22G | 2.98
Q22F | 1.93
Q22W | 1.95
Q22C | 1.68
S2K | 2.48
S2V | 2.76
S2H | 2.56
S2Q | 2.17
S2P | 2.92
S2G | 2.5

Variant | protein stability index
S2L | 1.8
S2R | 2.81
S2E | 2.9
L20G | 3.64
L20C | 3.45
L20T | 4.08
L20W | 2.82
L20Q | 3.68
L20I | 2.28
L20K | 4.64
L20S | 3.96
L20F | 2.75
L20A | 3.59
L20M | 3.44
L20D | 4.64
L20E | 4.43
L20R | 3.5
W1S | 3.69
W1K | 3.18
W1L | 2.91
W1R | 3.52
W1T | 3.39
W1P | 3.02
W1A | 3.21

Variant | protein stability index
W1Q | 3.28
W1Y | 2.68
W1E | 3.54
Q15A | 1.51
Q15V | 1.75
Q15T | 2.59
Q15H | 2.13
Q15W | 1.79
Q15Y | 1.81
Q15M | 1.67
Q15C | 1.81
Q15R | 2.85
Q15L | 2.36
Q15I | 2.07
Q15P | 3.13
Q15G | 2.66
